According to article PMC3398583, “Functional Cloning and Expression of the Schizophyllum commune Glucuronoyl Esterase Gene and Characterization of the Recombinant Enzyme” (Biotechnology Research International, 2012):

Substrate: COC(=O)[C@H]1O[C@H](O[C@H]2[C@H](Oc3ccc([N+](=O)[O-])cc3)OC[C@@H](O)[C@@H]2O)[C@H](O)[C@@H](O)[C@@H]1OC
Experiment: purified protein
Assay type: biochemical, Schizophyllum commune
Settings: 50 mM Na phosphate, pH 6.0, 0.08-0.4 mM substrate, 0.157 μM enzyme

B1: rScGE (recombinant Schizophyllum commune glucuronoyl esterase) (Schizophyllum commune H4-8) (protein)
chain: LSAALLAIAAFANVASAQDCDTPATVSGYSNSALPDPFTFNDGSPVTTAEDWECRRSQILALIQGYESGAAPPEPESVTGTASGNSLSVQVSYGGKSITFNNSITYPSGTAPAEGWPVIIAYEFPSLPIPSNVATLSFQNSAMGKQDSTSSRGQGLFYDLYGSSSNASAMTAWAWGVSRIIDAIESTPDAKLNPAAVGVTGCSRNGKGALMAGALEPRVALTLPQESGSGGDACWRLSRYEEQQGSQVQTATEIVGENCWFSAGFDQYVNNLDSLPYDHHLLAALVAPRGLISYANTDYVWLSGMSSFGCMTAAHAVYEALGVPENHGFEQVGGHSHCQWPSQLDGSLNAFINKFLLGQDVSTDYFESNNQFNGVTWSESQWINWETPTLN
notes: synthetic gene, all 393 residues except start Met (native signal peptide 1-19 in the construct); pGAPZalpha-A alpha-factor secretion, C-terminal myc and His tags; Pichia pastoris SMD1168; glycosylated, 53 kD (46 kD after N-glycosidase F)
B1 showed a Km of 250 µM and a kcat of 9.27 s⁻¹.
